# Reference: the supplement of paper PMC9170038
# System: MS2 coat protein
# Test: apparent KD of MS2 coat protein, switch ON state; designed switch direction (-1 OFF switch, 1 ON switch): -1; higher = weaker reporter binding
# Details: FMN input: 0 or 200 uM; Eterna round: R93 (includes R88 designs)
# Procedure, shortened: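 In 100 mM Tris-HCl pH 7.5 with 80 mM KCl and 4 mM MgCl2, and without or with constant ligand, SNAP-549-labelled MS2 coat protein was titrated in twofold steps from 0.7 or 1.5 nM to 3 µM. Per-step times went from 0.8–1.5 h down to 10–20 min. The RNA switches were transcribed on-chip from Illumina sequencing clusters, and apparent KD is the per-design median of normalised cluster binding-curve fits.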
row,Sequence,apparent KD of MS2 coat protein [nM]
1,AAUAACCGAGGAUAUACAAAACUUGUGAUCUAGUGGAUUUUACAUGAGGAUCACCCAUGUAGAAGGCGGAAAAG [Veenquge],61.3
2,AAAAAGUGAGGAUAUACGAUGUGGAGUAGACACAACCAGACGUAGAAGGCACAUGAGGAUCACCCAUGUCCAAA [EX4 Malc#17],21
3,AAAAAGUGAGGAUAUACGUUGAAAAAAAAAAAAAAAAAGCGGUAGAAGGCACAUGAGGAUCACCCAUGUAAAAA [Ex4 Malc#4],32.7
4,AAGAGUAGAGGAUAUACAUGAGGAUCACCCAUGUAAUCCAGAUAAGGAAGCAUGUCGUGUAGAAGGCUGCAUGA [MOD 2 of Nando (MS2 Riboswitches- Exclusion 3)],15.9
5,GGAAAACAUGAGGAUCACCCAUGUAAGGAUAUGCUAAAAAAAAAAAAAAAAAAAAAAUGCAGAAGGUACUAAAG [Amethyst 18],34
6,AAAGGACGAGGAUAUACAUGAGGAUCACCCAUGUAAAAAACAUAGUAAAAGAGCUUGUGUAGAAGGCGUCCAAA [Meechl Ex3 2 R2 v8],94.5
7,CAAAAGGAAGGAUAUACAUAAUAAAACGGGCGGGCACCUUGACAUGAGGAUCACCCAUGUAGAAGGUCCAAUAA [Ramaanan],16.9
8,AAAAAGUUAGGAUAUACAUGAGGAUCACCCAUGUGCACGUAUGGAGAAUAUGGUGGUAGUAGAAGGGACAAAAA [EX2 Malc#18],55.3
9,AAAAAUGGAGGAUAUACAUGAGGAUCACCCAUGUGUAACUAUACUAAGCACAAAAAAAGUAGAAGGCCAAAAAA [Gilly Gone Silly 9 - Jieux - Exclusion 3],53.5
10,CAAAGGUGAGGAUAUACGAGGAUAUGACGAAAGUCAUAAAAACAUGAGGAUCACCCAUGUAGAAGGCACCACAA [E2 64% 5],27.8
11,AAUAUGUAAGGAUAUGCUGCUCGUCACAAAAGUGAUGAGUAGCAGAAGGUACAUGAGGAUCACCCAUGUAAAGA [JL eternac mod 13],30.9
12,CUCAUGUGAGGAUAUCAGUAGUAAAAAAAAAAAAUUACUACUGAGAAGGCACAUGAGGAUCACCCAUGUACCUU [EX4 326: Super Stable 26],37.7
13,AAGUACGAAGGAUAUACAUGGAUAUACAUUCAUGUGGACCUACAUGAGGAUCACCCAUGUAGAAGGUCGUAAUA [Mat - Same state - Mayanna Mod - D145],24.6
14,AAGGUACGAGGAUAUACAUAGAUACAGACACAUGUACAUGUACAUGAGGAUCACCCAUGUAGAAGGCGUAUAUG [Mat - Same state - Mayanna Mod - D109],67.5
15,AAAGUGUCAGGAUAUGCGAAGGCAUCUGACAGAUGAGGAUCGCAGAAGGGACAUGAGGAUCACCCAUGUAAAAA,65.6
16,AACAUACAUGAGGAUCACCCAUGUCAGGAUAUGCCGGGUUAGAGCCAACUGAAAAACCGUAGAAGGGACGAAAA [Bilbo Confounded 8 - Jieux - Exclusion 1],66.9
17,AAGAAGUGAGGAUAUCCAAAAGAAAAGAAAAGAAAAGAAAAGGAGAAGGCACAUGAGGAUCACCCAUGUAAGAA [Ankhkaenre Psamtik III],26.3
18,AAAAAGGCAGGAUAUACAUGAGGAUCACCCAUGUUAAAAAAAAAAAAAAAAAAAAAGUGUAGAAGGGCCAAAAA [Default title],37.4
19,AACAGUACAGGAUAUACAUGAGGAUCACCCAUGUGAGAAUUAAAAGGCGUACCUAAAUGUAGAAGGGUACUGGA [JL Maslow Revisted mod 19],56.3
20,AAAAAGUGAGGAUAUACGCUGAAGAGAAGACACAACCAGGCGUAGAAGGCACAUGAGGAUCACCCAUGUACAAA [Ex4 Malc#8],28.2
21,AAAAAGGGAGGAUAUACAGGAGGUAAGGUCAAAAAAAAAAAACAUGAGGAUCACCCAUGUAGAAGGUUUAAAAA [Ecls2-V],25.8
22,GGGUCACAUGAGGAUCACCCAUGUAAGGAUAUGCUAGGGAUGGAAGCCAGGCCGCAACGCAGAAGGUACUAAAG [Janelle Amethyst 18 Mod 14 - Jieux - Exclusion 1],55.1
23,CUCAAGUAAGGAUAUCUAAGAAAAGAAGAGAAAGAAAAGAAAGAGAAGGUACAUGAGGAUCACCCAUGUAAGAA [EteRNA is fun!],34.4

row,Sequence,apparent KD of MS2 coat protein [nM]
1,AAAAAGUGAGGAUAUACAUGAGGAUCACCCAUGUGAAAGUCGAAAAAAAAGACAAAAAGUAGAAGGCACAAAAA [Fiskers Exclusion 3 D2],22.7
2,"AAAGGAGUAGGAUAUACAUGAGGAUCACCCAUGUAAAAAACAUAAUAAAAGAACUUAUGUAGAAGGGCUCCAAA [69%, Moding Meechl, 11]",35.8
3,AAAAAGUAAGGAUAUCUGGAUAGGAAAAAGAAAACCUAUCCAGAGAAGGUACAUGAGGAUCACCCAUGUAAAAA [Opal 30],20.8
4,AAAUGUUGAGGAUAUACAUGAGGAUCACCCAUGUGUAAAAAUAAAUACACAAAAGAAAGUAGAAGGCAACAAAA [Ex 3 May 11],28.7
5,AAAUUGUCAGGAUAUCGUAGAAUAGUGAAAAACUAGAGCUACGAGAAGGGACAUGAGGAUCACCCAUGUAAAAC [May 92],43.3
6,GGUUGGCGAGGAUAUACAUGAGGAUCACCCAUGUGAGAGAAAAAAGUAAGAAAGAAAAGUAGAAGGCGCUGACG [salish99-ex3-51],30.7
7,AAUUAGGUAGGAUAUACAUGAGGAUCACCCAUGUGGGAAAAAAACUACGAAAAAGAAUGUAGAAGGACCUAAAA [Mat - Exclusion 3 - Mayanna mod - D104],20.3
8,AAGAAGACAGGAUAUACAUGAGGAUCACCCAUGUAAAAGAAAGAAGGGAAAGAGAAAAGUAGAAGGGUCAAGAA [Menkheperre Ini],23.6
9,"AACUGGGCAGGAUAUACAUGAGGAUCACCCAUGUAAAGAAAAGAAAGAUCCGAAGAAAGUAGAAGGGCCUGGAA [Variant 3 of Mod 1 of Ex3 sub 3, by Tesla's Dusciple Round 1]",98
10,AAAAAGGCAGGAUAUACAUGAGGAUCACCCAUGUAAAGAAAGAAAGAAGAAAGGGAAAGUAGAAGGGCCAAAAA [Ex3 sub 1],34.4
11,AAUAAGAGAGGAUAUACAUAAUAAAAGAAAAGAAACAAAGAACAUGAGGAUCACCCAUGUAGAAGGCUCAAUAA [Sonbef],21.9
12,CAGUACUGAGGAUAUACAUGAGGAUCACCCAUGUGGGAAAGCUACGAAAGUAGCAAAUGUAGAAGGCAGUACUG [Ex3: 805],153
13,AGUAUGCGAGGAUAUACAUGAGGAUCACCCAUGUGAGAGAUAUGAGUGAGAAAGACAAGUAGAAGGCGCGUACA [JL Lego Mod 26],99.8
14,AUAAAGCGAGGAUAUACAUGAGGAUCACCCAUGUAAAUAAAUAGGAGAGCCACAAUAAGUAGAAGGUGCAAUAA [JR_Exc003_Sub008],54.8
15,ACCUGACAUGAGGAUCACCCAUGUGAGGAUAUGUACAUCAGGAAAAAAAAACUGAUGUACAGAAGGCACAAGGG [Amethyst 49],23.1
16,AACAGGACAGGAUAUACAUGAGGAUCACCCAUGUGAGAAUUCAGUAGAUUGCCACAGAGUAGAAGGGUCCUGGA [Ruby 100],58.5
17,AACAGUACAGGAUAUACAUGAGGAUCACCCAUGUGAAGAAUAAGUGGAGUACCACAAAGUAGAAGGGUACUGGA [Ruby 88],31.8
18,AAAAAAGGAGGAUAUACGAACAUGUCGAAAGACGUGAAGGGACAUGAGGAUCACCCAUGUAGAAGGUCUAAAAA [Mat - Exclusion 2 - JL mod - D87],30.7
19,AACAUGUCAGGAUAUGUAGCAUGAUACGAAAGUAUCAUGCUACAGAAGGGACAUGAGGAUCACCCAUGUGAUCA [Ex4: 940],26.7
20,AACUGACAUGAGGAUCACCCAUGUCAGGAUAUGCUUCAUAAAAUAAAAAUAAAAUGAUGCAGAAGGGACAUGAA [Design 27 :P Sub-opt 3],15.4
21,AACAGUACAGGAUAUACAUGAGGAUCACCCAUGUGAGAAAUAAGUGGCGUACCACAAAGUAGAAGGGUACUGGA [Mat - Exclusion 3 - JL mod - D21],32.6
22,ACGACUAGAGGAUAUACAUGAGGAUCACCCAUGUAACUGUCAGAAAACUGACGGAGAUGUAGAAGGCUAGUCGA [Mat - Exclusion 3 - Neo mod - D80],16.7
